Results as given in article PMC5192466, “Kunitz-Type Peptide HCRG21 from the Sea Anemone Heteractis crispa Is a Full Antagonist of the TRPV1 Receptor” (Marine Drugs, 2016).
Where two headings read alike, the source gives them in different places. Where no end group is shown, it is not given here.

Key:
TRPV1 [1] = target: T1, TRPV1 (Rattus norvegicus, UniProt O35433); assay: cell-based
T1 construct: expressed in transfected cells; host or cells: Xenopus laevis oocytes injected with cRNA
Method: To control the expression level of the TRPV1 channels, experiments were initiated with a first activation of TRPV1 with 1 μM capsaicin (CAP). […] This activation gives an inward non-selective cation current. […] Before application of HCRG21, cells are washed with ND96 to remove any presence of […]. […] However, when rHCRG21 was co-applied together with the agonist capsaicin, a reduction of the current was observed (Figure 5b). […] A concentration–response curve was constructed in order to assess the concentration dependence of the rHCRG21 induced effect. The IC50 value yielded 6.9 ± 0.4 μM (Figure 5c).
Figure 5 Activity profile of rHCRG21 (10 μM) on the TRPV1 receptor. The figures show the results of one representative experiment. Whole-cell current traces in control and rHCRG21 conditions are shown. […] All data represent the average of at least three independent experiments (n ≥ 3) and are presented as mean ± standard error; (c) Concentration–response curve for rHCRG21 on TRPV1 receptor.
For the expression of rKv1.1, hKv1.3, rKv1.4, rKv1.5, rKv1.6, Shaker IR, hERG, and TRPV1 in Xenopus oocytes, the linearized plasmids were transcribed using the T7 or SP6 mMESSAGE-mMACHINE transcription kit (Ambion, Austin, TX, USA). The harvesting of stage V–VI oocytes from anaesthetized female Xenopus laevis frog was previously described. Oocytes were injected with 50 nL of cRNA at a concentration of 1 ng/nL using a micro-injector (Drummond Scientific, Broomall, PA, USA). The oocytes were incubated in a solution containing (in mM): NaCl, 96; KCl, 2; CaCl2, 1.8; MgCl2, 2 and HEPES, 5 (pH 7.4), supplemented with 50 mg/L gentamicin sulfate.
Two-electrode voltage-clamp recordings were performed at room temperature (18–22 °C) using a Geneclamp 500 amplifier (Molecular Devices, Sunnyvale, CA, USA) controlled by a pClamp data acquisition system (Axon Instruments, Foster City, CA, USA). Whole cell currents from oocytes were recorded 1–4 days after injection. Bath solution composition was ND96 (in mM): NaCl, 96; KCl, 2; CaCl2, 1.8; MgCl2, 2, and HEPES, 5 (pH 7.4). Voltage and current electrodes were filled with 3 M KCl. Resistances of both electrodes were kept between 0.8 and 1.5 MΩ. The elicited currents were filtered and sampled at, respectively, 1 kHz and 10 kHz (for potassium currents) and at, respectively, 0.2 kHz and 0.5 kHz (for TRPV1 currents), using a four-pole low-pass Bessel filter. Leak subtraction was performed using a –P/4 protocol. KV1.1–KV1.6 and Shaker currents were evoked by 500 ms depolarizations to 0 mV followed by a 500 ms pulse to −50 mV, from a holding potential of −90 mV. Current traces of hERG channels were elicited by applying a +40 mV prepulse for 2 s followed by a step to −120 mV for 2 s. TRPV1 currents were measured in ND96 solution using a protocol of −90 mV during 400 s. The recording chamber was perfused at a rate of 2 mL·min^−1 with a ND96 solution. As previously described, capsaicin (2 μM) was used as an agonist and capsazepine (10 μM) as an antagonist of TRPV1. Capsaicin and capsazepine were purchased from Sigma. All data represent at least 3 independent experiments (n ≥ 3) in which independent experiments represent experiments on different cells expressing TRPV1 channel and are presented as mean ± standard error.

α-chymotrypsin [2] = target: α-chymotrypsin (Bos taurus, UniProt P00766); settings: cited from earlier work
From the text: The HCGS peptide subfamily and their evolutionary relationships were described in details previously. […] Moreo ...

TRPV1 [3] = target: T1, TRPV1; settings: cited from earlier work
From the text: They are the first sea anemone peptide characterized as TRPV1 modulators. […] It belongs to the family of polymodal TRP channels, serving as a molecular cellular sensor, which is activated by a wide spectrum of physical and chemical stimuli. They have diverse biophysical properties such as cation selectivity, specific mechanisms of activation, and they play the main role in ma ... || To control the expression level of the TRPV1 channels, experiments were initiated with a first activation of TRPV1 with 1 μM capsaicin (CAP). […] This activation gives an inward non-selective cation current. […] Before application of HCRG21, cells are washed with ND96 to remove any presence of capsazepine. […] Similarly ... || (+ 3 further places)

trypsin [4] = settings: cited from earlier work
From the text: The HCGS peptide subfamily and their evolutionary relationships were described in details previously. […] It is shown, that the first known H. crispa analgesic Kunitz-type peptides, APHC1–APHC3, have a Thr residue (instead of Lys or Arg) at position P1, similar to other representatives of the analgesic cluster (Figure 1a,b).

[5] = test system: voltage-gated potassium channels; settings: cited from earlier work
From the text: For many potent Kv channel blocking toxins, such as α-DTX, DTX-K, and DTX-I, isolated from the snake Dendroaspis polylepis, it has been well established that mainly a series of positive charged residues (for example, R3, R4, K5, K37, K39, K46, and K50 in α-DTX) are crucial for interaction with the Kv channel. […] Although there are many positively charged residues present in the sequence of HCRG21, they do differ in position with known Kv1.1–Kv1.6 blockers, such as α-DTX, DTX-K, DTX-I, AsKC1, and ShPI-1 (Figure 1c). […] Noteworthy, several positively charged residues are conserved between HCRG21 and ShPI-1 (in positions 8, 19, 28, 51, and 55, Figure 1c). Therefore, other Kv channel isoforms should be tested for their sensitivity to HCRG21 as ...

[6] = test system: serine, cysteine and aspartate proteases; settings: cited from earlier work
From the text: To date, a number of highly homologous native serine protease inhibitors has been isolated from different species: Anemonia sulcata, Heteractis crispa, Anthopleura aff. xanthogrammica, Anthopleura fuscoviridis, Stichodactyla helianthus, and Stichodactyla haddoni.

α-chymotrypsin [7] = assay: enzyme inhibition kinetics (Dixon method); trypsin with BAPNA, α-chymotrypsin with BTEE as substrate; substrate concentrations 133 and 65 mM; both enzymes 215 nM; peptide 0 up to 3.2 mM; three parallel experiments
trypsin [8] = assay: as above
[9] = target: transient receptor potential family member vanilloid 1 (TRPV1) (UniProt O35433)
Chain of transient receptor potential family member vanilloid 1 (TRPV1) (O35433 whole entry): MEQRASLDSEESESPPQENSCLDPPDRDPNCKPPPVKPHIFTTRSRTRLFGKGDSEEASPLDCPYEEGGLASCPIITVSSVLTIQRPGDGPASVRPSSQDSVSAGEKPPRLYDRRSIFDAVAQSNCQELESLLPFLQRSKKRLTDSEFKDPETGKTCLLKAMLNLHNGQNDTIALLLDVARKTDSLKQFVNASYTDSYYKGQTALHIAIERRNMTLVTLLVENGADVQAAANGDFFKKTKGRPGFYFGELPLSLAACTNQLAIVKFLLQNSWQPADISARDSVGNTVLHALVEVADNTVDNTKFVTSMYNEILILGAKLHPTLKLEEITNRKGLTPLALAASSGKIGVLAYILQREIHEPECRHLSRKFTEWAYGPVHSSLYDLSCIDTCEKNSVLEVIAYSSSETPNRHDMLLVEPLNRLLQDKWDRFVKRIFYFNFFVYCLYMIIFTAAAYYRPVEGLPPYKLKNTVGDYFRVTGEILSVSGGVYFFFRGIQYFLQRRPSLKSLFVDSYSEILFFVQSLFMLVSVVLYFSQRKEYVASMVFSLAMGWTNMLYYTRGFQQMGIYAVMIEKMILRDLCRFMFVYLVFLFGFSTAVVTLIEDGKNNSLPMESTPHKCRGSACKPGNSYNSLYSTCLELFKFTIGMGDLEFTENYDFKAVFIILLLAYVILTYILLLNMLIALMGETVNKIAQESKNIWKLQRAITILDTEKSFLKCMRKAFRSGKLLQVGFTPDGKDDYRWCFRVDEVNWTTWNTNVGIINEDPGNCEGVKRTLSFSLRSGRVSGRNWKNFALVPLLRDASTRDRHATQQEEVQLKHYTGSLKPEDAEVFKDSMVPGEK

T1 sequence (O35433 whole entry): as above

With `COc1cc(CNC(=O)CCCC/C=C/C(C)C)ccc1O` [capsaicin, reference compound] the “effect on TRPV1 (control agonist)” value (TRPV1 [1]) was “opens the channels”.

In the case of `Oc1cc2c(cc1O)CN(C(=S)NCCc1ccc(Cl)cc1)CCC2` [capsazepine, reference compound], the “effect on capsaicin-activated TRPV1 (control antagonist)” value (TRPV1 [1]) is reported as “closes the channels allowing the current levels to return to zero”.

For “APHC1: H. crispa analgesic Kunitz-type peptide (UniProt B2G331)”, the Ki (α-chymotrypsin [2]) is given as 5 µM.

In the case of “APHC1: H. crispa analgesic Kunitz-type peptide (UniProt B2G331) (GSICLEPKVVGPCTAYFRRFYFDSETGKCTVFIYGGCEGNGNNFETLRACRAICRA; three disulfides (Kunitz fold)) [reference compound]”, the EC50 (TRPV1 [3]; read-out: EC50, decrease of capsaicin induced currents through TRPV1) is listed as 54 ± 4 nM.

For “APHC2: H. crispa analgesic Kunitz-type peptide (UniProt C0HJF4)”, the Ki (α-chymotrypsin [2]) is given as 4.5 µM.

In the case of “APHC3: H. crispa analgesic Kunitz-type peptide (UniProt C0HJF3)”, the Ki (α-chymotrypsin [2]) is listed as 7 µM.

For “AsKC1: kalicludine from Anemonia sulcata (UniProt Q9TWG0) (INKDCLLPMDVGRCRASHPRYYYNSSSKRCEKFIYGGCRGNANNFHTLEECEKVCGVR; ends and bridges not checked; cysteine pairing not given here; UniProt Q9TWG0 1-58, looked up)”, the Ki (trypsin [4]) is given as less than 0.3 nM.

In the case of “AsKC2: kalicludine from Anemonia sulcata (UniProt Q9TWF9) (INKDCLLPMDVGRCRARHPRYYYNSSSRRCEKFIYGGCRGNANNFITKKECEKVCGVR; ends and bridges not checked; cysteine pairing not given here; UniProt Q9TWF9 1-58, looked up)”, the Ki (trypsin [4]) is given as less than 0.3 nM.

In the case of “AsKC3: Kunitz-type peptide from Anemonia sulcata (UniProt Q9TWF8) (INGDCELPKVVGRCRARFPRYYYNLSSRRCEKFIYGGCGGNANNFHTLEECEKVCGVRS; ends and bridges not checked; cysteine pairing not given here; UniProt Q9TWF8 1-59, looked up)”, the Ki (trypsin [4]) is listed as less than 0.3 nM.

In the case of “SHPI-1: protease inhibitor from the sea anemone Stichodactyla helianthus (UniProt P31713) (SICSEPKKVGRCKGYFPRFYFDSETGKCTPFIYGGCGGNGNNFETLHQCRAICRA; UniProt P31713 1-55, looked up)”, the “binding to Kv1.1, Kv1.2, and Kv1.6 channels” value [5] is listed as “binds with high affinity”, the protease inhibitory specificity [6] is listed as “inhibits not only serine but also cysteine and aspartate proteases” and the Ki (α-chymotrypsin [2]) is listed as 0.0023 µM. For the same molecule, the Ki (trypsin [4]) was 0.11 nM.

Molecule “recombinant HCRG21, Kunitz-type peptide from the sea anemone Heteractis crispa (from UniProt P0DL86 1-56)” has a Ki (α-chymotrypsin [7]) of 700 nM.

B1: recombinant HCRG21, Kunitz-type peptide from the sea anemone Heteractis crispa (peptide)
chain: RGICSEPKVVGPCTAYFRRFYFDSETGKCTPFIYGGCEGNGNNFETLRACRAICRA
B1 gave a Ki (trypsin [8]) of 200 nM and an IC50 of the inhibition of the capsaicin-induced current through TRPV1 in X. laevis oocytes (two-electrode voltage clamp, peptide co-applied with capsaicin; concentration-response curve) [9] of 6.9 µM.

B2: DkTx: double-knot toxin from the Chinese bird spider Ornithoctonus huwena (peptide, UniProt P0CH43 1-79, looked up)
Tau-theraphotoxin-Hs1a: DCAKEGEVCSWGKKCCDLDNFYCPMEFIPHCKKYKPYVPVTTNCAKEGEVCGWGSKCCHGLDCPLAFIPYCEKYRGRND
In the case of B2, the “effect of DkTx on TRPV1 current” value (TRPV1 [3]; conformational change in the receptor upper pore region) is given as “enhances the ion current through the channel” and the TRPV1 agonism (TRPV1 [3]; ref 48 (DkTx), ref 49 (VaTx1–VaTx3), ref 50 (BmP01)) is given as “agonists”.
